In publication PMC6954417, “DSS1 interacts with and stimulates RAD52 to promote the repair of DSBs”:

Tests used:
RAD52 (untagged, pET11a) = target: T1, RAD52 (untagged, pET11a) (Homo sapiens, UniProt P43351 1-418); test: stopped-flow fluorescence; 0.05-2.0 uM RAD52; smaller amplitude, lower affinity than with DSS1; sign change at ~0.5 uM; ssDNA EMSA: 30 mM Tris-acetate pH 7.5, 1 mM DTT, RT, 0.1% glutaraldehyde; FRET: same buffer + 0.1 mg/ml BSA, 25 C; dsDNA EMSA: 30 mM KPi pH 7.4, 1 mM DTT, 0.01; settings: protein: recombinant; tags: none; label: Cy3; single strand
T1 sequence: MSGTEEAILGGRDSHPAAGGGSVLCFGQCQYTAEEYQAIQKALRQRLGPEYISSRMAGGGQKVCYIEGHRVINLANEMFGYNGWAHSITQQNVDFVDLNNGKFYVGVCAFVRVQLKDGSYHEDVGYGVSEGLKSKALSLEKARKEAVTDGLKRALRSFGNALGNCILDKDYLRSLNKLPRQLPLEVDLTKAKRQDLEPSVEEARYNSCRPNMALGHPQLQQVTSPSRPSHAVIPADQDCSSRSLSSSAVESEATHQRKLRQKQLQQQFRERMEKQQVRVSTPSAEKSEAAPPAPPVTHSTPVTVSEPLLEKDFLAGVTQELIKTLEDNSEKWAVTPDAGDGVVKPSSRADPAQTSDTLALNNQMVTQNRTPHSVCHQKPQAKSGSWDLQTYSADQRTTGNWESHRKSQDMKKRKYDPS

[1] = target: RAD52 (untagged, pET11a);DSS1 (Homo sapiens;Homo sapiens, UniProt P43351;P60896 1-418;1-70, |); test: stopped-flow fluorescence; 1:1 complex; sign change at 0.1-0.25 uM; ssDNA EMSA: 30 mM Tris-acetate pH 7.5, 1 mM DTT, RT, 0.1% glutaraldehyde; FRET: same buffer + 0.1 mg/ml BSA, 25 C; dsDNA EMSA: 30 mM KPi pH 7.4, 1 mM DTT, 0.01; settings: protein: recombinant;recombinant; tags: none;GST removed by thrombin; label: Cy3; single strand
Chain of RAD52 (untagged, pET11a);DSS1 (P60896 whole entry, one chain of several): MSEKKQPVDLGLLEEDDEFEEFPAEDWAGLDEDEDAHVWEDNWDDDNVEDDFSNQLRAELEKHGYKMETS

TTTTTTTTTTTTTTTTTTTTTTTTTTTTTTTTT (ssDNA) [Cy3-dT33 (pR1255)]
binding result (RAD52 (untagged, pET11a)): binds | binding result [1]: binds
